Source: PMC6195595, “Structure-based redesign of docking domain interactions modulates the product spectrum of a rhabdopeptide-synthesizing NRPS” (Nature Communications, 2018)

T1: Kj12A N-terminal docking domain (Xenorhabdus stockiae KJ12.1)
T1 construct: also called Kj12A-NDD; source: E. coli BL21-Gold(DE3), purified (HisTrap, Ulp1 cleavage, anion exchange, SEC)
T1 chain: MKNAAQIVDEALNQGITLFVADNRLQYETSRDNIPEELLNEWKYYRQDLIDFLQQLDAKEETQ

T2: Kj12B N-terminal docking domain (Xenorhabdus stockiae KJ12.1)
T2 construct: also called Kj12B-NDD; source: E. coli BL21-Gold(DE3), purified (HisTrap, Ulp1 cleavage, anion exchange, SEC)
T2 chain: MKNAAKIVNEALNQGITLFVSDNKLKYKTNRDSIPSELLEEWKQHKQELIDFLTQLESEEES

B1: Kj12C N-terminal docking domain (domain or fragment)
chain: MIDAAQIVDEALEQGITLFVVNNRLQYETSRDSIPTELLNKWKQHKQELIDFLNQLDSEEQTK
notes: Kj12C of Xenorhabdus stockiae KJ12.1, N-terminal docking domain, 63 residues; 15N-labelled for the NMR titrations; also called Kj12C-NDD; source: E. coli BL21-Gold(DE3), purified (HisTrap, Ulp1 cleavage, anion exchange, SEC); not shown: His6-SUMO, N-terminal, cleaved

Columns and labels:
Test in all cases: ITC; 50 µM NDD (or Kj12C construct) in the cell titrated with 1 mM CDD peptide; 20 °C; 50 mM sodium phosphate pH 6.5, 100 mM NaCl; one site binding model; three independent titrations
Details in all cases: both partners purified
[1] = target: T1, Kj12A N-terminal docking domain
[2] = target: B1
[3] = target: T2, Kj12B N-terminal docking domain
[4] = target: T3, Kj12B-CDDshort R1565E peptide (Xenorhabdus stockiae KJ12.1, R1565E (stands in the printed letters))
T3 construct: source: synthetic peptide (Fmoc solid-phase synthesis, preparative HPLC)

[5] = target: B1

Binder	stoichiometry N [2] [sites]	Kd [5] [µM]	further results
LLKEKRKHFQAEQNSSQEYLRGEI (also called Kj12B-CDD; source: synthetic peptide, bought: JPT Peptides Technologies GmbH) [Kj12B C-terminal docking domain peptide]	0.9 ± 0.12		stoichiometry N [1]: 0.81 ± 0.01 sites; stoichiometry N [3]: 1 sites
QEYLRGEI (source: synthetic peptide (Fmoc solid-phase synthesis, preparative HPLC)) [Kj12B-CDDshort peptide]	1.05 ± 0.11		
B1			Kd [4]: > 100 µM
QEYLRAEI (source: synthetic peptide (Fmoc solid-phase synthesis, preparative HPLC)) [Kj12B-CDDshort G1566A peptide]		> 100	
QEYARGEI (source: synthetic peptide (Fmoc solid-phase synthesis, preparative HPLC)) [Kj12B-CDDshort L1564A peptide]		> 100	
